A word on the Kd: it is the free concentration of one partner at which half of the binding sites on the other are occupied at equilibrium, for simple one-to-one binding. As usually defined, the koff is the rate constant with which the complex falls apart. A word on the kon: it is a measure of how fast the partners come together.

Our source for the Kd, koff and kon values is patent publication US20240262926A1 (published 2024).

Test [1] addresses T1, recombinant human TfR (r human TfR: Sino Biological Inc.) (human, UniProt P02786 89-760).
T1 construct: Bought product; also called r human TfR-ECD (Histag); hTfR; not shown: histidine tag attached to the N-terminus
The test can be described thus: BLI (Octet RED96), His-tagged TfR ECD loaded on Ni-NTA sensor, antibody as analyte. The protocol: (§1) By measuring the variations of this shift between the interfering waves, determination of the number of the molecules bound to the layer of the biomolecules immobilized to the sensor tip surface and kinetic analysis of it can be performed in real time. The measurement was performed according generally to the operating manual attached to Octet RED96. As a human TfR, a recombinant human TfR (r human TfR: Sino Biological Inc.) was used, which had the amino acid sequence of the hTfR extracellular region, i.e., the cysteine residue at the position 89th from the N-terminal side to the phenylalanine at the C-terminus, of the amino acid sequence set forth as SEQ ID NO:1, with a histidine tag attached to the N-terminus. As a monkey TfR, a recombinant monkey TfR (r monkey TfR: Sino Biological Inc.) was used, which had the amino acid sequence of the cynomolgus monkey TfR extracellular region, i.e., the cysteine residue at the position 89th from the N-terminal side to the phenylalanine at the C-terminus, of the amino acid sequence set forth as SEQ ID NO:2, with a histidine tag attached to the N-terminus.
(§2) Each of the antibodies (anti-hTfR antibody Nos. 1 to 14) purified above was subjected to 2-fold dilution steps with HBS-P+(10 mM HEPES containing 150 mM NaCl, 50 μM EDTA and 0.05% Surfactant P20) to prepare antibody solutions of 7 different concentrations, 0.78125 to 50 nM (0.117 to 7.5 μg/mL). These antibody solutions were used as the sample solutions. The r human and r monkey TfRs were respectively diluted with HBS-P+ to prepare 25 μg/mL solutions, which were used as r human TfR-ECD (Histag) solution and r monkey TfR-ECD (Histag) solution, respectively.
(§3) Each of the sample solutions prepared above by 2-fold dilution steps was added, 200 μL/well, to a 96-well plate, black (Greiner Bio-One Inc.). Each of the r human TfR-ECD (Histag) solution and the r monkey TfR-ECD (Histag) solutions prepared above was added, 200 μL/well, to predetermined wells. To respective wells for baseline, dissociation and washing were added HBS-P+, 200 μL/well. To wells for regeneration were added 10 mM Glycine-HCl, pH 1.7, 200 μL/well. To wells for activation was added 0.5 mM NiCl₂ solution, 200 μL/well. The plate and biosensor (Biosensor/Ni-NTA: ForteBio Inc., a division of Pall Corporation) were set in the prescribed positions of Octet RED96.

In test [2] the target is T2, recombinant monkey TfR (r monkey TfR: Sino Biological Inc.) (cynomolgus monkey (Macaca fascicularis), UniProt Q5RDH6 89-760 (Pongo abelii entry)).
T2 construct: Bought product; also called r monkey TfR-ECD (Histag); cynomolgus monkey TfR; not shown: histidine tag attached to the N-terminus
T2 chain: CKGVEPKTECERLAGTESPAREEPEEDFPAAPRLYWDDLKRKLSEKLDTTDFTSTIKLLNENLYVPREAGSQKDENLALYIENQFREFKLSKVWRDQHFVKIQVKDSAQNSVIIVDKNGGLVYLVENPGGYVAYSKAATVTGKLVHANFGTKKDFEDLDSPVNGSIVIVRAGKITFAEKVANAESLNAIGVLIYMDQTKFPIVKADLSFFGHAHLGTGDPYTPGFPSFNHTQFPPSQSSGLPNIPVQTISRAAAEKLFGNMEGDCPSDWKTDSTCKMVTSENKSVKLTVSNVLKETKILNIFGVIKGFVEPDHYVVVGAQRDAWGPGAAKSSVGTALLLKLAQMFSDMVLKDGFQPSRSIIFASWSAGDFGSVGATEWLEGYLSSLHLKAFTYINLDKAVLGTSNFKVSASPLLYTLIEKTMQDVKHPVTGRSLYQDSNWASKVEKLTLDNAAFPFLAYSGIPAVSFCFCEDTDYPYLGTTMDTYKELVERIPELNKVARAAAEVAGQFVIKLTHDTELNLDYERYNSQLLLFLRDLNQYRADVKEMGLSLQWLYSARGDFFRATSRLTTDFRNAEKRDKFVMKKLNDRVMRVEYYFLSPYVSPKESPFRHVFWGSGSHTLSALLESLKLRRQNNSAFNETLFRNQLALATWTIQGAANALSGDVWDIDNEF
The description is as above. The protocol:
as §1, §2, §3

B1: anti-hTfR antibody No. 5 (antibody, V domains shown)
VH: EVQLQESGPELVKPGASVKMSCKASGYTFTNFVIHWVKQRPGQGLEWIGFFNPHKNGAEYNEKFQVKATLTSDKSSTTAYMELNSLTSEDSAVYYCARSFYYYSMDYWGQGTSVTVSS
VL: DIVMTQTPAIMSASPGEKVTMTCSASSSISSIHWYQQKPGTSPKRWIYDTSTLASGVPVRFSGSGSGTSYSLTISSMEAEDAATYYCHQRSSYPTFGGGTKLEIK
notes: Mouse hybridoma antibody purified on Protein G; also called mouse anti-hTfR antibody No. 5; product of Clone 5 line
Regarding B1, in test [1], the Kd turned out to be 0.0364 nM, the koff came to 2.44e-05 s⁻¹ and the kon amounted to 671000 M⁻¹ s⁻¹. Moreover, in test [2], the Kd turned out to be 1.46 nM, the koff was 0.000758 s⁻¹ and the kon was 519000 M⁻¹ s⁻¹.

B2: anti-hTfR antibody No. 9 (antibody, V domains shown)
VH: EVQLQESGPELKKPGETVKISCKASGYTFTNYGVSWVKQAPGKDLKWMGWIYTFTGEATYIDDFRGRFAFSLETSANTAYLQINNLKNEDTATYFCSRRNGAWFEDWGQGTLVTVSA
VL: DIVLTQSPALMSASPGETVTMTCSASSSVSLMFWYQQKPRSSPKPWIYFTSYRASGVPIRFSGSGSGTSFSLTISNLEAEDAATYYCQQWTSDPPTFGSGTKLEIE
notes: Mouse hybridoma antibody purified on Protein G; also called mouse anti-hTfR antibody No. 9; product of Clone 9 line
Regarding B2, in test [1], the Kd worked out at 0.121 nM, the koff turned out to be 9.46e-05 s⁻¹ and the kon is 782000 M⁻¹ s⁻¹.

B3: anti-hTfR antibody No. 7 (antibody, V domains shown)
VH: EVQLQESGGALVKPGGSLKVSCEASGITFRNYFMSWVRQTPEKRLEWVATISSAGGYTYYADSVKGRFTISRDNAGNTLYLQMSSLRSEDTAMYFCARQEVPYPYAMDYWGQGTSVIVSS
VL: DIVLTQSPVIMSASLGEEITLTCSASSSVNYIHWYQQKSGTSPKVLIYQTSNLASGVPSRFSGSRSGTFYSLKISSVEAEDAADYYCHQWSSYPWTFGGGTKLEIK
notes: Mouse hybridoma antibody purified on Protein G; also called mouse anti-hTfR antibody No. 7; product of Clone 7 line
Take B3: in test [1], the dissociation constant (Kd) came to 0.0822 nM, the koff was 3.03e-05 s⁻¹ and the kon turned out to be 369000 M⁻¹ s⁻¹. Further, in test [2], the Kd turned out to be 0.0171 nM, the koff stood at 4.54e-06 s⁻¹ and the on-rate constant (kon) was found to be 266000 M⁻¹ s⁻¹.

B4: anti-hTfR antibody No. 8 (antibody, V domains shown)
VH: EVQLQESGPGLVAPSQSLSITCTVSGFSLTTYGVSWIRQPPGKGLEWLGIIWGDGSTNYRSALISRLSISKDNSKNQVFLKLNSLQTDDTATYYCAKPDDYWGQGTSVTVSS
VL: DIVLTQSPAIMSASLGEEITLTCSASSSVSYMHWYQQKSGTSPKVLIYGTSNLASEVPSRFSGSGSGTFYSLTISSVEAEDAADYYCHQWSSYPWTFGGGTKLEIK
notes: Mouse hybridoma antibody purified on Protein G; also called mouse anti-hTfR antibody No. 8; product of Clone 8 line
On to B4, for which, in test [1], the Kd was less than 0.001 nM, the koff is less than 1e-07 s⁻¹ and the kon worked out at 696000 M⁻¹ s⁻¹. Further, in test [2], the Kd is 9.18 nM, the koff was determined as 0.00507 s⁻¹ and the on-rate constant (kon) worked out at 552000 M⁻¹ s⁻¹.

B5: anti-hTfR antibody No. 6 (antibody, V domains shown)
VH: EVQLQESGPGLVAPSQSLSITCSVSGFSLSTYGVYWVRQPPGKGLEWLGIIWGDGSTNYHSALISRLTISKDNSKSQVFLKLNSLQTADTATYYCAKPDDVWGAGTTVTVSS
VL: DIVLTQTPSSLSASLGERVSLTCRASQEISGYLSWLQQKPDGTIKRLIYAASTLDSGVPKRFSGSRSGSDYSLTISSLESEDFADYYCLQYSSYPRTFGGGTKLEIK
notes: Mouse hybridoma antibody purified on Protein G; also called mouse anti-hTfR antibody No. 6; product of Clone 6 line
B5: in test [1], the Kd came to 0.958 nM, the koff was found to be 0.000723 s⁻¹ and the kon came out at 754000 M⁻¹ s⁻¹. Also, in test [2], the Kd was 0.123 nM, the koff was 0.000236 s⁻¹ and the kon amounted to 495000 M⁻¹ s⁻¹.

B6: anti-hTfR antibody No. 10 (antibody, V domains shown)
VH: EVQLQESGGGLVKPGGSLKLSCEASGITFRNYAMSWVRQTPEKRLEWVATISSYGGYTYYADSVKGRFTVSRDNAGNTLYLQMSSLRSEDTAMYHCARQEVPYPYPMDNWGQGTSVIVSS
VL: DIVMTQTPSSLSASLGERVSLTCRPSQEISGYLSWLQQKPDGTIKRLIYAASTLDSGVPKRFSGSRSGSDYSLTISSLESEDFADYYCLQYASYPRTFGGGTKLEIK
notes: Mouse hybridoma antibody purified on Protein G; also called mouse anti-hTfR antibody No. 10; product of Clone 10 line
For B6, in test [1], the Kd amounted to 1.13 nM, the koff was 0.000766 s⁻¹ and the kon amounted to 679000 M⁻¹ s⁻¹. In test [2], the dissociation constant (Kd) was 31.6 nM, the koff was found to be 0.0122 s⁻¹ and the kon was determined as 387000 M⁻¹ s⁻¹.

B7: anti-hTfR antibody No. 1 (antibody, V domains shown)
VH: EVQLQESGGGLVQPGGSLKLSCAASGLTFSNYGMSWIRQTPDKRLELVANINTNGGSTYYPDSVKGRFTISRDNAKNTLYLQMNSLKSEDTAIYYCTNNRYDEDYWGQGTSVTVSS
VL: DIVLTQSSKFMSTSVGDRVSITCKASQDVNSAVAWFQQKPGQSPKLLIYWTSTRHTGVPDRFTGSGSGTVYTLTISSVQAEDLALYYCQQHYSTPRTFGGGTKLEIKR
notes: Mouse hybridoma antibody purified on Protein G; also called mouse anti-hTfR antibody No. 1; product of Clone 1 line
In the case of B7, in test [1], the dissociation constant (Kd) worked out at 0.00509 nM, the koff was found to be 2.55e-06 s⁻¹ and the kon turned out to be 500000 M⁻¹ s⁻¹. In test [2], the equilibrium dissociation constant (Kd) is less than 0.001 nM, the koff is less than 1e-07 s⁻¹ and the kon is 280000 M⁻¹ s⁻¹.

B8: anti-hTfR antibody No. 4 (antibody, V domains shown)
VH: EVQLQESGAELVRPGTSVRVFCKASGYAFTNYLIEWVKQRPGQGLEWIGLINPGSGGIIYNEKFTDRATLTADKSSSTAYMQLSSLTSDDSAVYFCARSNYYGTTYWHFDVWGAGTTVTVSS
VL: DIVLTQTPAIMSASPGEKVTMTCSASSNVNYMHWYQQKSSTSPKLWIYDTSKLASGVPGRFSGSGSGNSYSLTISSMEAEDVATYYCFQGNGNPYTFGGGTKLEIK
notes: Mouse hybridoma antibody purified on Protein G; also called mouse anti-hTfR antibody No. 4; product of Clone 4 line
Regarding B8, in test [1], the Kd was found to be 0.12 nM, the koff was determined as 0.000229 s⁻¹ and the kon was 1.91e+06 M⁻¹ s⁻¹. Further, in test [2], the dissociation constant (Kd) was 0.161 nM, the koff stood at 0.000121 s⁻¹ and the kon is 754000 M⁻¹ s⁻¹.

B9: anti-hTfR antibody No. 2 (antibody, V domains shown)
VH: EVQLQESGAELVRPGVSVKISCKGSGYTFTDYVMHWVRQSHAKSLEWIGVISTYYGHGSYNQRFKGKATMTVDKSSSTAYLELVRLTSEDSAIYYCVRGGYGSSSLAGNFDVWGAGTTVTVSS
VL: DIVLTQSPATLSVTPGDSVSLSCRASQSISNNLQWYQQKSHESPRLLIKYASQSISGIPSRFSGSGSGTDFTLSINSVETEDFGMYFCQQSNSWPRTFGAGTKLELKR
notes: Mouse hybridoma antibody purified on Protein G; also called mouse anti-hTfR antibody No. 2; product of Clone 2 line
Regarding B9, in test [1], the Kd stood at 0.0112 nM, the koff came out at 1.23e-05 s⁻¹ and the kon is 1.11e+06 M⁻¹ s⁻¹.

B10: anti-hTfR antibody No. 11 (antibody, V domains shown)
VH: EVQLQESGAELVRPGSSVKISCKASGYAFSIYWINWLKQRPGQGLEWIGQIYPGNGDTNYNGKFKGKATLTADKSSNTVYMRLSSLTSEDSAVYFCGRWGDDYAMDFWGQGTSVTVSS
VL: DIVLTQSPATLSVTPGDRVSLSCRASQSIRNYLHWYQQKSHESPRLLIKYASQSISGIPSRFSGSGSGTDFTLSINSVETEDFGMYFCQQTNSWPYTFGGGTKLEIK
notes: Mouse hybridoma antibody purified on Protein G; also called mouse anti-hTfR antibody No. 11; product of Clone 11 line
Turning to B10, in test [1], the Kd was determined as 0.0837 nM, the off-rate constant (koff) is 2.28e-05 s⁻¹ and the kon turned out to be 272000 M⁻¹ s⁻¹. Also, in test [2], the equilibrium dissociation constant (Kd) was 3.38 nM, the off-rate (koff) was found to be 0.000421 s⁻¹ and the kon worked out at 124000 M⁻¹ s⁻¹.

B11: anti-hTfR antibody No. 13 (antibody, V domains shown)
VH: EVQLQESGAELVRPGSSVKISCKASGYAFSIYWINWLKQRPGQGLEWIGQIYPGNGDTNYNGKFKGKATLTADKSSNTVYMRLSSLTSEDSAVYFCGRWGDDYAMDFWGQGTSVTVSS
VL: DIVITQTPATLSVTPGDRVSLSCRASQSIRNYLHWYQQKSHESPRLLIKYASQSISGIPSRFSGSGSGTDFTLTINSVETEDFGMYFCQQTNSWPYTFGGGTKLEIK
notes: Mouse hybridoma antibody purified on Protein G; also called mouse anti-hTfR antibody No. 13; product of Clone 13 line
Regarding B11, in test [1], the equilibrium dissociation constant (Kd) was less than 0.001 nM, the koff was less than 1e-07 s⁻¹ and the kon was 835000 M⁻¹ s⁻¹. Moreover, in test [2], the equilibrium dissociation constant (Kd) is 0.123 nM, the koff was 7.29e-05 s⁻¹ and the kon was found to be 591000 M⁻¹ s⁻¹.
